Results as given in article PMC5490006 (Nature Communications, 2017).

Assays:
Mcm6 = molecular target: T1, Mcm6 (budding yeast, UniProt P53091 1-1017); assay: pull-down; Cdt1 FLAG held on M2 anti-FLAG agarose, Mcm6 fl or ΔC in solution; 10 μg of each protein, buffer B, 60 min at 4 °C; eluted with FLAG peptide; Coomassie; settings: both partners purified
T1 construct: Mcm6, subunit of the budding yeast MCM (Mcm2-7), expressed as an individual subunit; called Mcm6 fl and the full-length protein; also called Mcm6 fl; full-length Mcm6; source: E. coli, purified
T1 sequence (P53091 whole entry): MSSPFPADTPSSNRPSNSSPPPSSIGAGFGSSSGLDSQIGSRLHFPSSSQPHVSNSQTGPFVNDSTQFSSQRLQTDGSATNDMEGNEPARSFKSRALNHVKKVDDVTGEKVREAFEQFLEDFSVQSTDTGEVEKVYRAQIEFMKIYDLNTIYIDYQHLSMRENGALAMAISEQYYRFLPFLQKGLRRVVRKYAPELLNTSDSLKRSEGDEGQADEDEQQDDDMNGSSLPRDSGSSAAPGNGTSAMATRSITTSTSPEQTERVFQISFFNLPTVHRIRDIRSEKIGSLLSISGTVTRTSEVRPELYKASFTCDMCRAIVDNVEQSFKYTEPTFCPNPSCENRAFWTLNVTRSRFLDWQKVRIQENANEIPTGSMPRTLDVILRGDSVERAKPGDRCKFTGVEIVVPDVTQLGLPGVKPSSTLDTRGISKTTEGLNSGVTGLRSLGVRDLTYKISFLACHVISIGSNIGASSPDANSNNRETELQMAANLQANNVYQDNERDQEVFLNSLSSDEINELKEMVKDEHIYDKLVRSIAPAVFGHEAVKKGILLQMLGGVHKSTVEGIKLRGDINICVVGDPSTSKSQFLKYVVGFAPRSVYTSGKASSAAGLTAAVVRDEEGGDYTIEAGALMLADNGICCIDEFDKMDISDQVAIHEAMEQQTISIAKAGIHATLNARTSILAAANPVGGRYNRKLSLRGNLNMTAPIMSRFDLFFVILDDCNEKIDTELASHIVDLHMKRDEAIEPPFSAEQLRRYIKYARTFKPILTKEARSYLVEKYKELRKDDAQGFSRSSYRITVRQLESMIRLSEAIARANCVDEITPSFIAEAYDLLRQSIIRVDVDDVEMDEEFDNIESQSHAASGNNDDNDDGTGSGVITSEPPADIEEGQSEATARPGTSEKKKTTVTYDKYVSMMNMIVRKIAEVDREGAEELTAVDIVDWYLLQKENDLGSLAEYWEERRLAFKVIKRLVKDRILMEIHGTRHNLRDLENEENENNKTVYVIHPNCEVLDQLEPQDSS

[1] = molecular target: T2, Mcm6 within purified Cdt1–MCM complexes (budding yeast, UniProt P53091 1-1017); assay: cross-linking; MCM-Cdt1 FLAG complex (200 μg) crosslinked with 20, 50 and 100 μM BS3; denatured with SDS; denaturing anti-FLAG immunoprecipitation; silver staining, bands identified by immunoblotting and mass spectrometry; settings: both partners purified
T2 construct: Mcm6, yeast MCM subunit, as part of the Cdt1-MCM complex; source: purified Cdt1-MCM complex
T2 sequence (P53091 whole entry, one chain of several): as the sequence (P53091 whole entry) above

binding result (Mcm6): binds | binding result [1]: binds
B1: Cdt1 FLAG (natural protein, S. cerevisiae, UniProt P47112 1-604, looked up)
chain: MSGTANSRRKEVLRVPVIDLNRVSDEEQLLPVVRAILLQHDTFLLKNYANKAVLDALLAGLTTKDLPDTSQGFDANFTGTLPLEDDVWLEQYIFDTDPQLRFDRKCRNESLCSIYSRLFKLGLFFAQLCVKSVVSSAELQDCISTSHYATKLTRYFNDNGSTHDGADAGATVLPTGDDFQYLFERDYVTFLPTGVLTIFPCAKAIRYKPSTMATTDNSWVSIDEPDCLLFHTGTLLARWSQGMHTTSPLQIDPRANIVSLTIWPPLTTPISSKGEGTIANHLLEQQIKAFPKVAQQYYPRELSILRLQDAMKFVKELFTVCETVLSLNALSRSTGVPPELHVLLPQISSMMKRKIVQDDILKLLTIWSDAYVVELNSRGELTMNLPKRDNLTTLTNKSRTLAFVERAESWYQQVIASKDEIMTDVPAFKINKRRSSSNSKTVLSSKVQTKSSNANALNNSRYLANSKENFMYKEKMPDSQANLMDRLRERERRSAALLSQRQKRYQQFLAMKMTQVFDILFSLTRGQPYTETYLSSLIVDSLQDSNNPIGTKEASEILAGLQGILPMDISVHQVDGGLKVYRWNSLDKNRFSKLLQIHKSKQQD
notes: Cdt1, S. cerevisiae, FLAG-tagged; also called FLAG-tagged Cdt1; source: purified; alone for the pull-downs, within the MCM-Cdt1 FLAG complex for the crosslinking
